Measured values reported in IntAct's records for PubMed 9374523.

B1: MutS protein homolog 5 (Saccharomyces cerevisiae), Q12175 (parent)
chain: MSHEWLISASETMRSIGNGEGLRDKGAVVANNDGEFNEGDTNREEDSSTIFSFDFDEEIVMCIDFSGGKLGCSILDYHTKTLKAFDQDYVVNKTTISSHDLIDDADMSSNDISLLLGLLIMEANPTVCLVPARLEDWIFDYIKTKCDEINCRLELQPIKRFKKWDLLQSLQLRGHDNQTILNDILSNSKFTTTVTLGTVGCILANHEQLGEYNDSTASSNMVTGRLVQNAFEDVIHGIRYIDIRDRMVLDENTISALHIFPTAHKLGHDKMMRNGFFSVFELFNQVSSDYARRILKSWLINPLTNKKRIETRYSIIRTLLDKQNAIIFSDLSQSIKRCPDAFGFINQLRSGKSTLGTWSKVASFLEKGIAIFQLVSSLKLGSDEANILHDIKNKVDISALKECLRKVETVIDFDTSRDTKTLTINTGVDNRLDECRNIYNHLEGILLDVARETQIFLLNTMPQEDCKTTKSLEKLVNAVYIPQLGYLVTISVLMEPLLDGIPNLQWEEIFRSSENIYFKNGRVLELDETYGDIYGAISDFEIEILFSLQEQILRRKTQLTAYNILLSELEILLSFAQVSAERNYAEPQLVEDECILEIINGRHALYETFLDNYIPNSTMIDGGLFSELSWCEQNKGRIIVVTGANASGKSVYLTQNGLIVYLAQIGCFVPAERARIGIADKILTRIRTQETVYKTQSSFLLDSQQMAKSLSLATEKSLILIDEYGKGTDILDGPSLFGSIMLNMSKSEKCPRIIACTHFHELFNENVLTENIKGIKHYCTDILISQKYNLLETAHVGEDHESEGITFLFKVKEGISKQSFGIYCAKVCGLSRDIVERAEELSRMINRGDDVVQQCGNLTEKEMREFQKNQEIVKKFLSWDLDLETTTTSENLRLKLKNFLR
partner: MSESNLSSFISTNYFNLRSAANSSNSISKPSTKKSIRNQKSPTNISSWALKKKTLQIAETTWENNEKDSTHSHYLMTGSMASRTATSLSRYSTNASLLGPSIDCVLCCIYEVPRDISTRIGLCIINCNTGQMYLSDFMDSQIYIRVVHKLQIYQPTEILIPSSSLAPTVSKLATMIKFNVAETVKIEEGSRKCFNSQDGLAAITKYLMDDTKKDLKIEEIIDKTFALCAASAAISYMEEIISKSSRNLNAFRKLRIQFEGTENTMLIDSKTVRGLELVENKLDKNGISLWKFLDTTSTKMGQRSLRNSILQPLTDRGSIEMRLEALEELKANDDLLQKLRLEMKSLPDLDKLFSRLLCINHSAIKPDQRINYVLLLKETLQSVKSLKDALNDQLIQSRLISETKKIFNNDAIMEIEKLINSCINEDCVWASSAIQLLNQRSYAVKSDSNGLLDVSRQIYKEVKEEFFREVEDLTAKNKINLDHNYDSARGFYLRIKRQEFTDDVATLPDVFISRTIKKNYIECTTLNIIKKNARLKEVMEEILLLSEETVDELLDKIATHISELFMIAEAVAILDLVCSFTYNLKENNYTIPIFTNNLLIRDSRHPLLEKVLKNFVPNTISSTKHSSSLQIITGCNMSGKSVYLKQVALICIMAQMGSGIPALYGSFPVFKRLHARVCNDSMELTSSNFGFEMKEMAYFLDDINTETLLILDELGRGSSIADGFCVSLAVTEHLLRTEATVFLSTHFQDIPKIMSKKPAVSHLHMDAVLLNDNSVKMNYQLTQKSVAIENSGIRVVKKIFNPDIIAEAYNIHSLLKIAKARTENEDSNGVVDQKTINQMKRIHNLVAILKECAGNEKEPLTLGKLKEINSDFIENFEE

Variants of: B1
Conditions: with msh4_yeast MSH4, P40965

effect of a mutation on the interaction	Variant
with no effect	G643D
with no effect	G821D
with no effect	A644V
with no effect	G648R
